Measurements reported in publication PMC4370744, “Expression and purification of functional human glycogen synthase-1:glycogenin-1 complex in insect cells” (Protein Expression and Purification, 2015).

Target: T1, human glycogenin-1 (GN1), GST removed by PreScission protease (human, UniProt P46976 1-350, glycosylated (degree of glycosylation modest))
T1 construct: human glycogenin-1 (GN1), NM 004130; released from GST at the PreScission site; the introduction speaks of a complete full-length complex; Same construct as m2 after cleavage; source: Sf9, co-expressed with GYS1; purified with GYS1 (glutathione Sepharose, eluted by GST-tagged PreScission protease, Superdex 200)
T1 sequence (looked up): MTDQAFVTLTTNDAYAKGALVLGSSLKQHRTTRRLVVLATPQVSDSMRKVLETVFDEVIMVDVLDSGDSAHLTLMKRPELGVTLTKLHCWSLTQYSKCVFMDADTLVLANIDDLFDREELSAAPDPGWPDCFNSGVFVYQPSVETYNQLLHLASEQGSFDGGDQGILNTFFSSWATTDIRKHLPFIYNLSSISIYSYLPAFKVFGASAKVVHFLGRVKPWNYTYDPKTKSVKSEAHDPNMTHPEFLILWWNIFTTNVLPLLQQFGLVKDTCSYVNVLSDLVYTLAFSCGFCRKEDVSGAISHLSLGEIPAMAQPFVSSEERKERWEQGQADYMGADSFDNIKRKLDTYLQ
Test: SEC; analytical: purified GYS1:GN1 (5 ug) on Superdex 200 3.2/300, 20 mM TES pH 7.4, 150 mM KCl, 1 mM DTT; apparent MW against protein standards
Settings: both partners purified

B1: human muscle glycogen synthase (GYS1) (enzyme, UniProt P13807 1-737, looked up)
chain: MPLNRTLSMSSLPGLEDWEDEFDLENAVLFEVAWEVANKVGGIYTVLQTKAKVTGDEWGDNYFLVGPYTEQGVRTQVELLEAPTPALKRTLDSMNSKGCKVYFGRWLIEGGPLVVLLDVGASAWALERWKGELWDTCNIGVPWYDREANDAVLFGFLTTWFLGEFLAQSEEKPHVVAHFHEWLAGVGLCLCRARRLPVATIFTTHATLLGRYLCAGAVDFYNNLENFNVDKEAGERQIYHRYCMERAAAHCAHVFTTVSQITAIEAQHLLKRKPDIVTPNGLNVKKFSAMHEFQNLHAQSKARIQEFVRGHFYGHLDFNLDKTLYFFIAGRYEFSNKGADVFLEALARLNYLLRVNGSEQTVVAFFIMPARTNNFNVETLKGQAVRKQLWDTANTVKEKFGRKLYESLLVGSLPDMNKMLDKEDFTMMKRAIFATQRQSFPPVCTHNMLDDSSDPILTTIRRIGLFNSSADRVKVIFHPEFLSSTSPLLPVDYEEFVRGCHLGVFPSYYEPWGYTPAECTVMGIPSISTNLSGFGCFMEEHIADPSAYGIYILDRRFRSLDDSCSQLTSFLYSFCQQSRRQRIIQRNRTERLSDLLDWKYLGRYYMSARHMALSKAFPEHFTYEPNEADAAQGYRYPRPASVPPSPSLSRHSSPHQSEDEEDPRNGPLEEDGERYDEDEEAAKDRRNIRAPEWPRRASCTSSTSGSKRNSVDTATSSSLSTPSEPLSPTSSLGEERN
modifications: heavily phosphorylated: phospho-T54, T372, S412, S486, S641, S645, S647, S652, S653, S657, S710, S727 (LC-MS), S8/S11 (immunoblot); about 6 mol phosphate per mol total protein (GYS1 + GN1)
notes: human muscle glycogen synthase GYS1, NM 002103, UniProt P13807; no tag; the introduction speaks of a complete full-length complex; tryptic peptides up to residue 737 were found; the methods say only 'genes coding for human GYS1'; also called glycogen synthase-1; GYSb (native, phosphorylated form); source: Sf9, co-expressed with GST-tagged GN1 from a bicistronic pFastBac-Dual baculovirus; in …
stoichiometry N: ~1 GYS1 per GN1 (printed as 4:4)
